These results are taken from article PMC12642504 (bioRxiv, 2025).

This assay deals with BG505 MD39.3 SOSIP trimer (soluble Env trimer, SPR analyte) (HIV-1 group M subtype A, isolate BG505, stabilised). Put plainly: SPR.

B1: V2-Int1 antibody (PCT64-18D), human IgG1 (antibody, V domains shown)
VH: EVQLVESGGGLVKPGGSLRLSCVGSGFAFSDAWMTWVRQAPGKGLEWVGHMRPTPEGGAKDYAAPVKGRFTVSRDDSKNTLYLQMNSLKIEDTAVYYCMTGVETGDFWSDYYAQYYDPYLIDVWGKGTTVTVSS
VL: EIVLTQSPGTLSLSPGDRATLSCRATQSVDSNYLAWYQQKPGQAPRLLIYGTSSRAAGIPDRFSGSGSGTDFTLTIDRLEPEDFAVYYCRQYGTSFTFGPGTKVDIK
As a reminder, the Kd is the free concentration of one partner at which half of the binding sites on the other are occupied at equilibrium, for simple one-to-one binding. Low values mean higher affinity, high ones lower affinity. As to B1, the equilibrium dissociation constant (Kd) worked out at 770 nM.
